Broadly, the Kd is the free concentration of one partner at which half of the binding sites on the other are occupied at equilibrium, for simple one-to-one binding. A word on the koff: it is the first-order rate constant of dissociation. A word on the kon: it is the rate constant with which the complex forms.

Where a chain is given by its changes, count along the chain named.

B1: humanized Y1238 hz25 (hz-HC5 / hz-LC5), IgG1.3f (antibody, V domains shown)
VH: QVQLVQSGAEVKKPGASVKVSCKASGYAFTNYLIEWVRQRPGQGLEWMGVINPGSGGTNYNEKFKGRVTMTADKSISTAYMELSRLRSDDTAVYYCARSQLGRRFDYWGQGTLVTVSS
VL: DIQMTQSPSSLSASVGDRVTITCKASQDVRTGVAWYQQKPGQAPKLLIYSASYRNTGVPSRFSGSRSGTDFTFTISSLQPEDIAVYYCQQHYSPPYTFGGGTKVEIK
notes: IgG1.3f heavy constant, common CL; expression supernatant; also called Sup 25
B2: humanized Y1238 hz27 (hz-HC6 / hz-LC2), IgG1.3f (antibody, V domains shown)
VH: B1 VH with M70L
VL: B1 VL with Q42K, V85T
notes: IgG1.3f heavy constant, common CL; expression supernatant; also called Sup 27
B3: humanized Y1238 hz29 (hz-HC6 / hz-LC4), IgG1.3f (antibody, V domains shown)
VH: B1 VH with M70L
VL: B1 VL with A43S, P80A
notes: IgG1.3f heavy constant, common CL; expression supernatant; also called Sup 29
B4: humanized Y1238 hz28 (hz-HC6 / hz-LC3), IgG1.3f (antibody, V domains shown)
VH: B1 VH with M70L
VL: B1 VL with A43S
notes: IgG1.3f heavy constant, common CL; expression supernatant; also called Sup 28
B5: humanized Y1238 hz20 (hz-HC4 / hz-LC5), IgG1.3f (antibody, V domains shown)
VH: B1 VH with R40A
VL: B1 VL
notes: IgG1.3f heavy constant, common CL; expression supernatant; also called Sup 20
B6: humanized Y1238 hz10 (hz-HC2 / hz-LC5), IgG1.3f (antibody, V domains shown)
VH: B1 VH with R40A, K74T
VL: B1 VL
notes: IgG1.3f heavy constant, common CL; expression supernatant; also called Sup 10
B7: humanized Y1238 hz18 (hz-HC4 / hz-LC3), IgG1.3f (antibody, V domains shown)
VH: B1 VH with R40A
VL: B1 VL with A43S
notes: IgG1.3f heavy constant, common CL; expression supernatant; also called Sup 18
B8: humanized Y1238 hz5 (hz-HC1 / hz-LC5), IgG1.3f (antibody, V domains shown)
VH: B1 VH with R40A, A72R, K74T
VL: B1 VL
notes: IgG1.3f heavy constant, common CL; expression supernatant; also called Sup 5
B9: humanized Y1238 hz4 (hz-HC1 / hz-LC4), IgG1.3f (antibody, V domains shown)
VH: B1 VH with R40A, A72R, K74T
VL: B1 VL with A43S, P80A
notes: IgG1.3f heavy constant, common CL; expression supernatant; also called Sup 4
B10: humanized Y1238 hz26 (hz-HC6 / hz-LC1), IgG1.3f (antibody, V domains shown)
VH: B1 VH with M70L
VL: B1 VL with Q42K, R66G, V85T
notes: IgG1.3f heavy constant, common CL; expression supernatant; also called Sup 26
B11: humanized Y1238 hz22 (hz-HC5 / hz-LC2), IgG1.3f (antibody, V domains shown)
VH: B1 VH
VL: B1 VL with Q42K, V85T
notes: IgG1.3f heavy constant, common CL; expression supernatant; also called Sup 22
B12: humanized Y1238 hz30 (hz-HC6 / hz-LC5), IgG1.3f (antibody, V domains shown)
VH: B1 VH with M70L
VL: B1 VL
notes: IgG1.3f heavy constant, common CL; expression supernatant; also called Sup 30
B13: humanized Y1238 hz2 (hz-HC1 / hz-LC2), IgG1.3f (antibody, V domains shown)
VH: B1 VH with R40A, A72R, K74T
VL: B1 VL with Q42K, V85T
notes: IgG1.3f heavy constant, common CL; expression supernatant; also called Sup 2
B14: humanized Y1238 hz7 (hz-HC2 / hz-LC2), IgG1.3f (antibody, V domains shown)
VH: B1 VH with R40A, K74T
VL: B1 VL with Q42K, V85T
notes: IgG1.3f heavy constant, common CL; expression supernatant; also called Sup 7
B15: humanized Y1238 hz3 (hz-HC1 / hz-LC3), IgG1.3f (antibody, V domains shown)
VH: B1 VH with R40A, A72R, K74T
VL: B1 VL with A43S
notes: IgG1.3f heavy constant, common CL; expression supernatant; also called Sup 3
B16: humanized Y1238 hz23 (hz-HC5 / hz-LC3), IgG1.3f (antibody, V domains shown)
VH: B1 VH
VL: B1 VL with A43S
notes: IgG1.3f heavy constant, common CL; expression supernatant; also called Sup 23
B17: humanized Y1238 hz17 (hz-HC4 / hz-LC2), IgG1.3f (antibody, V domains shown)
VH: B1 VH with R40A
VL: B1 VL with Q42K, V85T
notes: IgG1.3f heavy constant, common CL; expression supernatant; also called Sup 17
B18: humanized Y1238 hz24 (hz-HC5 / hz-LC4), IgG1.3f (antibody, V domains shown)
VH: B1 VH
VL: B1 VL with A43S, P80A
notes: IgG1.3f heavy constant, common CL; expression supernatant; also called Sup 24
B19: humanized Y1238 hz6 (hz-HC2 / hz-LC1), IgG1.3f (antibody, V domains shown)
VH: B1 VH with R40A, K74T
VL: B1 VL with Q42K, R66G, V85T
notes: IgG1.3f heavy constant, common CL; expression supernatant; also called Sup 6
B20: humanized Y1238 hz19 (hz-HC4 / hz-LC4), IgG1.3f (antibody, V domains shown)
VH: B1 VH with R40A
VL: B1 VL with A43S, P80A
notes: IgG1.3f heavy constant, common CL; expression supernatant; also called Sup 19
B21: humanized Y1238 hz16 (hz-HC4 / hz-LC1), IgG1.3f (antibody, V domains shown)
VH: B1 VH with R40A
VL: B1 VL with Q42K, R66G, V85T
notes: IgG1.3f heavy constant, common CL; expression supernatant; also called Sup 16
B22: humanized Y1238 hz21 (hz-HC5 / hz-LC1), IgG1.3f (antibody, V domains shown)
VH: B1 VH
VL: B1 VL with Q42K, R66G, V85T
notes: IgG1.3f heavy constant, common CL; expression supernatant; also called Sup 21
B23: humanized Y1238 hz8 (hz-HC2 / hz-LC3), IgG1.3f (antibody, V domains shown)
VH: B1 VH with R40A, K74T
VL: B1 VL with A43S
notes: IgG1.3f heavy constant, common CL; expression supernatant; also called Sup 8
B24: humanized Y1238 hz9 (hz-HC2 / hz-LC4), IgG1.3f (antibody, V domains shown)
VH: B1 VH with R40A, K74T
VL: B1 VL with A43S, P80A
notes: IgG1.3f heavy constant, common CL; expression supernatant; also called Sup 9

For the assay, the target named is T1, human-CD40 monomer (human, UniProt P25942 21-193, limits assumed).
T1 construct: also called hCD40-monomer; human-CD40-monomer protein
T1 sequence (P25942 21-193 limits assumed): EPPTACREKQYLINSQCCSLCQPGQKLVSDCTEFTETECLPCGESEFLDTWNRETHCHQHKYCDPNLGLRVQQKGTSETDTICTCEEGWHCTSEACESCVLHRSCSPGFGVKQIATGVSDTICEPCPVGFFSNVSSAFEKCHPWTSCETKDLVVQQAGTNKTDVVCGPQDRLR
The experiment in a line: SPR 2 pt screen, Ab on protein A. Here is the method: The VH sequences were formatted in the context of an IgG1.3f isotype. The Vκ sequences were formatted as a full light chain with a common CL sequence. All 55 combinations of these humanized HC and LC constructs, as well as the chimeric Y1238 molecule were expressed as 3 ml supernatants for binding analysis by SPR. Each of the 56 supernatants, as well as a purified Y1238-chimeric IgG1 antibody, was captured on a protein A sensor chip and tested for binding to two concentrations (i.e., 200 nM and 1000 nM) of hCD40-monomer using BIAcore™ SPR in a screening assay. All antibodies, except for those containing hz-HC3, captured at high levels (>300 RU) using a 100-fold dilution of the expression supernatant, indicating a high antibody titer in the supernatant except for the hz-HC3 samples. The kinetic data for the two concentrations of hCD40-monomer were fit to a 1:1 Langmuir model, to yield estimates of the kinetic and affinity values for these interactions, and for comparison of the different molecules. […] Also, for a given heavy chain, the antibodies with light chains hz-LC1 or hz-LC2 had higher CD40 affinity than those with hz-LC3, hz-LC4 or hz-LC5.
On to B1, for which the Kd stood at 6.6 nM, the koff is 0.00028 s⁻¹ and the kon came out at 43000 M⁻¹ s⁻¹.

Take B2: the Kd came to 3.3 nM, the koff is 0.00013 s⁻¹ and the kon turned out to be 40000 M⁻¹ s⁻¹.

As to B3, the Kd was found to be 6.5 nM, the koff came to 0.00028 s⁻¹ and the kon came out at 42000 M⁻¹ s⁻¹.

In the case of B4, the dissociation constant (Kd) was found to be 5.6 nM, the koff is 0.00024 s⁻¹ and the kon came to 42000 M⁻¹ s⁻¹.

B5: the Kd came to 8.3 nM, the koff came out at 0.00037 s⁻¹ and the kon came out at 45000 M⁻¹ s⁻¹.

Take B6: the Kd came to 5.9 nM, the koff was determined as 0.00027 s⁻¹ and the kon turned out to be 45000 M⁻¹ s⁻¹.

For B7, the dissociation constant (Kd) was 7.6 nM, the koff is 0.00035 s⁻¹ and the kon was 46000 M⁻¹ s⁻¹.

Regarding B8, the Kd is 11 nM, the koff worked out at 0.0005 s⁻¹ and the kon is 47000 M⁻¹ s⁻¹.

For the molecule B9, the Kd was 8.9 nM, the koff came to 0.00042 s⁻¹ and the kon was found to be 48000 M⁻¹ s⁻¹.

In the case of B10, the Kd turned out to be 2.9 nM, the koff turned out to be 0.00012 s⁻¹ and the kon worked out at 41000 M⁻¹ s⁻¹.

In the case of B11, the Kd was 2.9 nM, the off-rate constant (koff) was 0.00012 s⁻¹ and the kon amounted to 40000 M⁻¹ s⁻¹.

In the case of B12, the Kd is 7.7 nM, the koff stood at 0.00033 s⁻¹ and the kon amounted to 42000 M⁻¹ s⁻¹.

B13: the Kd was found to be 5.2 nM, the koff is 0.00023 s⁻¹ and the kon was determined as 45000 M⁻¹ s⁻¹.

For the molecule B14, the Kd was found to be 2.7 nM, the koff came out at 0.00011 s⁻¹ and the kon was found to be 43000 M⁻¹ s⁻¹.

For the molecule B15, the Kd is 10 nM, the koff was 0.00048 s⁻¹ and the kon is 48000 M⁻¹ s⁻¹.

In the case of B16, the Kd is 7.2 nM, the koff was determined as 0.00031 s⁻¹ and the kon was determined as 43000 M⁻¹ s⁻¹.

For the molecule B17, the Kd worked out at 4.4 nM, the koff worked out at 0.00018 s⁻¹ and the kon is 42000 M⁻¹ s⁻¹.

As to B18, the Kd is 7.4 nM, the off-rate (koff) worked out at 0.00032 s⁻¹ and the kon amounted to 43000 M⁻¹ s⁻¹.

With B19, the Kd amounted to 2.7 nM, the koff stood at 0.00012 s⁻¹ and the kon stood at 45000 M⁻¹ s⁻¹.

On to B20, for which the Kd was determined as 6.3 nM, the koff amounted to 0.00028 s⁻¹ and the kon was determined as 45000 M⁻¹ s⁻¹.

As to B21, the dissociation constant (Kd) is 2.7 nM, the koff came to 0.00012 s⁻¹ and the on-rate constant (kon) is 45000 M⁻¹ s⁻¹.

Consider B22, for which the Kd stood at 3.5 nM, the koff came to 0.00015 s⁻¹ and the kon came out at 42000 M⁻¹ s⁻¹.

For the molecule B23, the equilibrium dissociation constant (Kd) stood at 6.2 nM, the koff came to 0.00029 s⁻¹ and the kon is 46000 M⁻¹ s⁻¹.

Turning to B24, the Kd stood at 6.6 nM, the koff is 0.00031 s⁻¹ and the kon amounted to 47000 M⁻¹ s⁻¹.

The values above are taken from patent US20220177596A1 (Bristol-Myers Squibb, published 2022).
